{
  "source": "patent US20120065365A1",
  "about": "“Stable Radiopharmaceutical Compositions and Methods for Their Preparation” (BRACCO IMAGING S.P.A., priority 2003, published 2012)",
  "key": {"[1]": {"format": "physicochemical", "conditions": "Radiolysis Protecting Solution containing L-selenomethionine, room temperature", "method": "^177Lu-A and ^177Lu-B were prepared at a 50 mCi level as described in EXAMPLE 4. Immediately after cooling the reaction mixtures to room temperature, 1 mL of a Radiolysis Protecting solution was added, containing 10 mg/mL gentisic acid; 50 mg/mL ascorbic acid sodium salt; 2 mg/mL HSA; 3.92 mg/mL L-selenomethionine, 0.9% (v:v) benzyl alcohol and 1 mg/mL of Na2EDTA.2H2O in 0.05 M, pH 5.3 citrate buffer. The reaction vials were stored in the autosampler chamber and the stability was analysed by RP-HPLC over time using HPLC Methods 3 [^177Lu-A] or 4 [^177Lu-B]."}, "[2]": {"format": "physicochemical", "conditions": "55 mCi/2 ml, 1 mL radiolysis protecting solution (L-cysteine) added after complex formation, room temperature"}, "[3]": {"assay": "Stability in Radiolysis Protecting Solution containing methionine (FIG. 4 and similar study)", "format": "physicochemical", "conditions": "methionine in the radiolysis protecting solution increased to 3 mg/mL", "method": "Formulations stabilized by such cocktails maintained excellent radiochemical purity (RCP) values (>95% RCP) for as long as 5 days at room temperature. This stabilizing cocktail is added immediately after formation of the radioactive complex, so would be the second vial of a two-vial kit."}, "[4]": {"format": "physicochemical", "conditions": "50 mCi/2 mL, Radiolysis Protecting Solution with 0 mg/mL L-cysteine, room temperature", "method": "^177Lu-A was prepared at a 50 mCi level as described in EXAMPLE 4. Immediately after cooling the reaction mixture to room temperature, 1 mL of a Radiolysis Protecting Solution was added, that contained 10 mg/mL gentisic acid; 50 mg/mL ascorbic acid sodium salt; 2 mg/mL HSA; 0.9% (v:v) benzyl alcohol and 1 mg/mL of Na2EDTA.2H2O in 0.05 M, pH 3.3 citrate buffer. The reaction vial was stored in an autosampler chamber and the stability was analysed by RP-HPLC over time."}, "[5]": {"format": "physicochemical", "conditions": "50 mCi/2 mL, Radiolysis Protecting Solution, room temperature", "method": "^177Lu-A and ^177Lu-B were prepared at a 50 mCi level as described in EXAMPLE 4. Immediately after cooling the reaction mixtures to room temperature, 1 mL of a Radiolysis Protecting Solution was added, containing 10 mg/mL gentisic Acid; 50 mg/mL ascorbic acid sodium salt, 2 mg/mL HSA, (2 mg/mL or 3.52 mg/mL) L-cysteine, 0.9% (v/v) benzyl alcohol and 1 mg/mL of Na2EDTA.2H2O in 0.05 M, pH 5.3 citrate buffer. The reaction vials were stored in the autosampler chamber and the stability was analysed by RP-HPLC over time using HPLC Methods 3 [^177Lu-A] or 4 [^177Lu-B]. Similar results were obtained for ^177Lu-B."}, "[6]": {"format": "physicochemical", "conditions": "50 mCi/2 mL in Radiolysis Protecting Solution containing L-methionine, room temperature", "method": "The injection volume was 20 μL.\nA Radiolysis Protecting Solution was prepared to contain 10 mg/mL gentisic acid; 50 mg/mL ascorbic acid sodium salt; 2 mg/mL HSA; 2.98 mg/mL L-methionine, 0.9% (v:v) benzyl alcohol and 1 mg/mL of Na2EDTA.2H2O in 0.05 M, pH 5.3 citrate buffer. […] The mixture was incubated at 100° C. for 5 min, and then cooled to room temperature with a water bath. A 1-mL aliquot of the Radiolysis Protecting Solution was immediately added. The reaction vial was stored in an autosampler chamber and the stability was analyzed by Reversed Phase HPLC over time, using HPLC Methods 3 and 4. The results obtained for ^177Lu-B are shown in the chromatograms in FIG. 9."}},
  "note": "Like-named read-outs stand apart in the source and are kept apart here.",
  "data": [
    {"substance": "^177Lu-A: the ^177Lu complex of DOTA-Gly-ACA-Gln-Trp-Ala-Val-Gly-His-Leu-Met-NH2", "values": [
      {"measurement": "% RCP 0-d", "setting": "[1]; 50 mCi level, 0 d", "value": 97.6, "unit": "%"},
      {"measurement": "% RCP 1-d", "setting": "[1]; 1 d", "value": 98.2, "unit": "%"},
      {"measurement": "% RCP 2-d", "setting": "[1]; 2 d", "value": 97.5, "unit": "%"},
      {"measurement": "% RCP 3-d", "setting": "[1]; 3 d", "value": 97.8, "unit": "%"},
      {"measurement": "% RCP 5-d", "setting": "[1]; 5 d", "value": 99.4, "unit": "%"},
      {"measurement": "RCP for 5 days", "setting": "[2]", "value": "> 95", "unit": "%"},
      {"measurement": "RCP (effective radiostabilization)", "setting": "[3]", "value": "> 95", "unit": "%"},
      {"measurement": "% RCP 0-d (first value of cell)", "setting": "[4]; 0 d", "value": "100/100%"},
      {"measurement": "% RCP 0-d (second value of cell)", "setting": "[4]; 0 d", "value": "100/100%"},
      {"measurement": "% RCP 1-d (first value of cell)", "setting": "[4]; 1 d", "value": 94.9, "unit": "%"},
      {"measurement": "% RCP 1-d (second value of cell)", "setting": "[4]; 1 d", "value": 99.2, "unit": "%"},
      {"measurement": "% RCP 2-d (first value of cell)", "setting": "[4]; 2 d", "value": 93.6, "unit": "%"},
      {"measurement": "% RCP 2-d (second value of cell)", "setting": "[4]; 2 d", "value": 97.3, "unit": "%"},
      {"measurement": "% RCP 3-d (second value of cell)", "setting": "[4]; 3 d", "value": "ND/95.1%"},
      {"measurement": "% RCP 5-d (first value of cell)", "setting": "[4]; 5 d", "value": 90.4, "unit": "%"},
      {"measurement": "% RCP 5-d (second value of cell)", "setting": "[4]; 5 d", "value": 92.9, "unit": "%"},
      {"measurement": "% RCP 0-d", "setting": "[5]; L-cysteine 1.0 mg/mL", "value": 100, "unit": "%"},
      {"measurement": "% RCP 1-d", "setting": "[5]; L-cysteine 1.0 mg/mL", "value": 99.9, "unit": "%"},
      {"measurement": "% RCP 2-d", "setting": "[5]; L-cysteine 1.0 mg/mL", "value": 98.4, "unit": "%"},
      {"measurement": "% RCP 3-d", "setting": "[5]; L-cysteine 1.0 mg/mL", "value": 97.5, "unit": "%"},
      {"measurement": "% RCP 5-d", "setting": "[5]; L-cysteine 1.0 mg/mL", "value": 96.9, "unit": "%"},
      {"measurement": "% RCP 0-d", "setting": "[5]; L-cysteine 1.75 mg/mL", "value": 100, "unit": "%"},
      {"measurement": "% RCP 1-d", "setting": "[5]; L-cysteine 1.75 mg/mL", "value": 99.9, "unit": "%"},
      {"measurement": "% RCP 2-d", "setting": "[5]; L-cysteine 1.75 mg/mL", "value": 98.9, "unit": "%"},
      {"measurement": "% RCP 3-d", "setting": "[5]; L-cysteine 1.75 mg/mL", "value": 95.8, "unit": "%"},
      {"measurement": "% RCP 5-d", "setting": "[5]; L-cysteine 1.75 mg/mL", "value": 93.3, "unit": "%"},
      {"measurement": "% RCP 0-d", "setting": "[6]; 0 d", "value": 100, "unit": "%"},
      {"measurement": "% RCP 1-d", "setting": "[6]; 1 d", "value": 100, "unit": "%"},
      {"measurement": "% RCP 2-d", "setting": "[6]; 2 d", "value": 100, "unit": "%"},
      {"measurement": "% RCP 5-d", "setting": "[6]; 5 d", "value": 100, "unit": "%"}
    ]}
  ]
}
